“Also recorded” adds a separate entry of the source.
Tests used:
[1] = test system: mesoCAR TILs against EMMESO tumor cells; test: Ex vivo killing and cytokine release assays with blocking agents; assay type: cell-based, human; settings: blocking agent added ex vivo
Protocol: T cell Effector Assays. Effector T cells were cocultured with firefly luciferase expressing tumor cells at different ratios for a specified period time. At the end of the co-culture incubation period, supernatant was saved for IFN levels by ELISA (Biolegend #430106), wells were washed, and remaining tumor cells were lysed with 1× cell lysis buffer for 30 minutes. The luciferase activity in the lysates was analyzed using the Luciferase Assay System on a GloMax Multi Detection System (Promega.) Results are reported as percent killing based on luciferase activity in wells with tumor, but no T cells. (% killing=100-((RLU from well with effector and target cell coculture)/(RLU from well with target cells)×100)). Effector-to-target ratios represent total T cells per target cell.
Given these expression data, the potential functional importance of specific inhibitory pathways in mesoCAR TILs was studied by introducing available blocking agents during the ex vivo killing and cytokine release assays. […] The relatively high dose of 10 ug/ml anti-PDL1 antibody was based on previously published investigations on cancer immunotherapy.

[2] = target: T1, biotinylated mesothelin ECD (Homo sapiens, UniProt Q13421); test: Surface plasmon resonance (Biacore T200) binding affinity of purified scFvs; settings: for Kd: 1:1 Binding or Steady State Affinity fit
T1 construct: made in house; host or cells: HEK293F (transient)
Protocol: Binding affinity of purified scFvs was measured on a Biacore T200 system. Briefly, recombinant human biotinylated mesothelin ECD was immobilized on a streptavidin (SA) sensor chip surface at a density of 150 RU. Purified scFv was injected over the chip under constant flow rate at three-fold serial dilutions. Association and dissociation rates of the protein complex were monitored for 270 seconds and 400 seconds, respectively. Double referencing was performed against a blank immobilized flow cell and a buffer blank. Affinity was determined with a Langmuir 1:1 binding model when possible, for those scFVs where accurate fitting was not possible due to fast on and off rates, the steady state model was used.

[3] = Size exclusion chromatography (oligomerization state of expressed scFvs); assay type: physicochemical; settings: purified scFv
Protocol: Size exclusion chromatography was performed to determine the oligomerization states of the expressed scFvs. 25 μg each was injected onto a TSKGel Super SW3000 4.6 mm×300 mm column (Tosoh Bioscience) heated to 35° C. The scFvs were eluted at 0.3 mL/min in 750 mM arginine, 1 mM EDTA, 20 mM sodium phosphate, 250 mM sodium chloride, pH 7.2; the UV absorbance was monitored at 280 nm.

[4] = target: T1, biotinylated mesothelin ECD; test: SPR relative epitope binning in comparison to SS1; assay type: binding; settings: 50 nM SS1 captured first, then scFv at 100 nM
Protocol: In embodiments, the competition assay is an SPR-based assay. Briefly, the antigen, e.g., human mesothelin, is immobilized on a surface. Through a microflow system, a reference antibody is injected over the antigen layer. Upon binding of the reference antibody to the antigen, an increase in signal, typically expressed in response units (RU) is detected, e.g., reference signal. After a desired time, a test antibody is injected over the antigen layer. If the test antibody binds to a different region or epitope of the antigen, then an additional increase in signal is detected, e.g., a 5% or more, 10% or more, 15% or more, 20% or more, 25% or more, 30% or more, 35%, or more, 40% or more, 45% or more, 50% or more, 55% of more, 60% or more, 65% or more, 70% or more, 75% or more, 80% or more, 85% or more, 90% or more, or 95% or more increase in signal, e.g., RU, as compared to the highest signal detected upon binding of the reference antibody, e.g., the reference signal. If the test antibody binds to the same region or epitope of the antigen, then little or no increase in signal, e.g., RU, will be detected, e.g., less than 20%, less than 15%, less than 10%, less than 5%, less than 4%, less than 3%, less than 2%, or less than 1% increase in signal, e.g., RU, as compared to the highest signal detected upon binding of the reference antibody, e.g., the reference signal. When using this SPR-based competition assay, an antibody is said to compete with the reference antibody when less than 20%, less than 15%, less than 10%, less than 5%, less than 4%, less than 3%, less than 2%, or less than 1% increase in signal, e.g., RU, is detected when compared to the reference signal detected upon binding of the reference antibody to the antigen. An antibody is said to not compete, or compete poorly, with a reference antibody when a 5% or more, 10% or more, 15% or more, 20% or more, 25% or more, 30% or more, 35%, or more, 40% or more, 45% or more, 50% or more, 55% of more, 60% or more, 65% or more, 70% or more, 75% or more, 80% or more, 85% or more, 90% or more, or 95% or more increase in signal, e.g., RU, is detected when compared to the reference signal detected upon binding of the reference antibody to the antigen.
To determine the relative binding epitope of each of the scFvs in comparison to SS1, 50 nM SS1 was captured by biotinylated mesothelin ECD immobilized on a streptavidin sensor chip at a contact time of 180 seconds resulting in a relative density of 70 RU. Purified scFv at 100 nM (M5, M11, M12, M14, M16, M17, M21, or M23) was then immediately injected over the chip to minimize dissociation of the SS1/mesothelin complex. Binding of the secondary scFv was monitored for 270 seconds.

Ovcar8 = Ovcar8 xenograft model (Example 8); assay type: in vivo, NSG mice; settings: OVCAR8-mcherry; 10×10^6 T cells, about 4×10^6 CART cells
Protocol: Anti-tumor activity of CART-MSLN was assessed in vivo in an Ovcar8 xenograft model. 10×10^6 Ovcar8 cells were implanted subcutaneously on day 0 in NSG mice. At day 14, 2×10^6 CART cells (CARTs expressing M5, M11, M17, M21, SS1, and CD19, or untransduced cells; 10×10^6 total T cells) in a 100 μl dose was administered intravenously. Mice and tumors were monitored for about 40 days after tumor cell implantation.
A second in vivo xenograft experiment was performed to assess the anti-tumor activity of a second set of CART-MSLN cells. 10×10^6 OVCAR8-mcherry cells were injected into NSG mice. Once tumors were 150-250 mm^2, mice were randomized into treatment groups. CARTs expressing M12, M14, M16, M23, ss1, CD19, or untreated cells were injected at a dose of 10×10^6 T cells in 100 μl. About 40% of T cells were expressing CAR, and therefore at the administered dosage, about 4×10^6 CART cells were delivered to each animal.

T1 sequence (Q13421 with tags, fused parts or gaps): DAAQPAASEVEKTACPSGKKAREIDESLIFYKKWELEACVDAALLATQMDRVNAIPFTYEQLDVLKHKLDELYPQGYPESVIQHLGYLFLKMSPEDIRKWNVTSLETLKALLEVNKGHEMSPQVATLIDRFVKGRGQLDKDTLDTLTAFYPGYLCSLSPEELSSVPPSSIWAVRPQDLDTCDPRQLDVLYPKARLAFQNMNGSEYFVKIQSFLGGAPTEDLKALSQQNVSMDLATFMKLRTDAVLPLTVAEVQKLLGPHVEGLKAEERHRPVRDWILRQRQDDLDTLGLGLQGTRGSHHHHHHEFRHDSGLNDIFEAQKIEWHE

Molecule | killing ability of cryo mesoCAR T cells [1] | killing activity of mesoCAR TILs [1] | tumor-induced IFN secretion of mesoCAR TILs [1] | Kd [2] [nM] | % Monomer (SEC) [3] [%] | relative epitope binning against SS1 on human mesothelin [4] | effect on tumor growth, second xenograft experiment (Ovcar8) | ka ([2]; 1:1 Binding fit) [M⁻¹ s⁻¹] | kd ([2]; 1:1 Binding fit) [s⁻¹]
O.O.O.O.O.O.O.O.O.O=C([O-])[C@@H]1[O][Sb]2([O-])([O][Sb]34([OH])[O][C@H]([C@H](O)CO)[C@H]([O]3)[C@H](C(=O)[O-])[O]4)[O][C@H]([C@H](O)CO)[C@@H]1[O]2.[Na+].[Na+].[Na+] [SSG, sodium stibogluconate] | slightly inhibited | significantly increased | significantly increasing |  |  |  |  |  | 
M23: human anti-mesothelin scFv SEQ ID NO: 61; CDRs in Tables 4 and 5 (protein) scFv: QVQLQQSGAEVKKPGASVKVSCKASGYTFTNYYMHWVRQAPGQGLEWMGIINPSGGYTTYAQKFQGRLTMTRDTSTSTVYMELSSLRSEDTAVYYCARIRSCGGDCYYFDNWGQGTLVTVSSGGGGSGGGGSGGGGSGGGGSDIQLTQSPSTLSASVGDRVTITCRASENVNIWLAWYQQKPGKAPKLLIYKSSSLASGVPSRFSGSGSGAEFTLTISSLQPDDFATYYCQQYQSYPLTFGGGTKVDIK |  |  |  | 114 | 91 | Competitive binding; also recorded: competitive binders with SS1 | did not have an effect on tumor growth |  | 
M16: human anti-mesothelin scFv SEQ ID NO: 54; full CAR SEQ ID NO: 78 (protein) scFv: EVQLVESGGGLVQPGRSLRLSCAASGFTFDDYAMHWVRQAPGKGLEWVSGISWNSGSTGYADSVKGRFTISRDNAKNSLYLQMNSLRAEDTALYYCAKDSSSWYGGGSAFDIWGQGTMVTVSSGGGGSGGGGSGGGGSSSELTQEPAVSVALGQTVRITCQGDSLRSYYASWYQQKPGQAPVLVIFGRSRRPSGIPDRFSGSSSGNTASLIITGAQAEDEADYYCNSRDNTANHYVFGTGTKLTVL |  |  |  | 22.7 | 94.5 | Competitive binding; also recorded: competitive binders with SS1 | did not have an effect on tumor growth | 174000 | 0.00395
